Assay results published in patent US20150166647A1 (VLST, published 2015).
Blank lines part the entries; values can stand above or below the binder they belong to.

Tests used:
[1] = molecular target: T1, IL-8; experiment: MSD electrochemiluminescence assay; chemokine coated at 1 µg/mL, 7D12A at 3 µg/mL; background = BSA
T1 construct: also called IL-8/CXCL8; CXCL8

[2] = molecular target: T2, human MPIF-1/CCL23 (human, UniProt P55773 46-120); experiment: as above
T2 sequence: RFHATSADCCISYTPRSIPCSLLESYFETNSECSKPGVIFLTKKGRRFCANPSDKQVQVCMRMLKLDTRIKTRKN

[3] = molecular target: T3, MCP-3; experiment: as above
T3 construct: also called MCP-3/CCL7; CCL7

[4] = molecular target: T4, human HCC-2/MIP-1δ/CCL15 (human, UniProt Q16663 46-113); experiment: as above
T4 sequence: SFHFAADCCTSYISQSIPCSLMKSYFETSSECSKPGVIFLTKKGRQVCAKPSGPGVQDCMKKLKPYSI

[5] = molecular target: T5, SDF; experiment: as above
T5 construct: also called SDF-1/CXCL12; CXCL12

[6] = molecular target: T6, human MCP-1/CCL2 (human, UniProt P13500 24-99); experiment: as above
T6 construct: also called Biotin-MCP1

[7] = molecular target: T7, human HCC-1/CCL14/CCL14a (human, UniProt Q16627 28-93); experiment: as above
T7 sequence: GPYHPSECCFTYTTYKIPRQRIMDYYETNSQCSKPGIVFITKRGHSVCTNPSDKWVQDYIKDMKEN

[8] = molecular target: T8, HCC-4; experiment: as above
T8 construct: also called HCC-4/CCL16; CCL16
T8 chemokine: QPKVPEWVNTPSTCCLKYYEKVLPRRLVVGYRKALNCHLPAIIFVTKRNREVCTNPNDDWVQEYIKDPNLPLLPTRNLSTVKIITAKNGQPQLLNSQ

[9] = molecular target: T9, Fractalkine; experiment: as above
T9 construct: also called Fractalkine/CX3CL1; CX3CL1
T9 chemokine: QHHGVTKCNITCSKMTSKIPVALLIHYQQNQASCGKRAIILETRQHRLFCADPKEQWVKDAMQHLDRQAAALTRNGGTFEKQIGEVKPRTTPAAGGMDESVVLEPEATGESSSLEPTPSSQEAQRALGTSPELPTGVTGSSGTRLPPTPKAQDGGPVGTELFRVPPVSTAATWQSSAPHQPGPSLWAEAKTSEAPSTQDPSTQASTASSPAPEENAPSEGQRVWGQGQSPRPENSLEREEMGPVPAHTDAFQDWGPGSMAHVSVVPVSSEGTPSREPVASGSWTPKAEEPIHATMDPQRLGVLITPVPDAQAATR

[10] = molecular target: T10, ELC; experiment: as above
T10 construct: also called ELC/MIP-3β/CCL19; CCL19
T10 chemokine: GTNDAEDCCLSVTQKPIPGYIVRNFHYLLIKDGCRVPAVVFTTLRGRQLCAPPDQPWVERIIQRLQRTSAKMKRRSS

[11] = molecular target: T11, human PARC/CCL18 (human, UniProt P55774 21-89); experiment: as above
T11 sequence: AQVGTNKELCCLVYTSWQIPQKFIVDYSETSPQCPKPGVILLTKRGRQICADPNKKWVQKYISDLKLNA

[12] = molecular target: T12, MDC; experiment: as above
T12 construct: also called MDC/CCL22; CCL22
T12 chemokine: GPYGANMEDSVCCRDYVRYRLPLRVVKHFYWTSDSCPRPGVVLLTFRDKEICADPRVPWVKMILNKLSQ

[13] = molecular target: T13, MCP-4; experiment: as above
T13 construct: also called MCP-4/CCL13; CCL13

[14] = molecular target: T14, I-309; experiment: as above
T14 construct: also called I-309/CCL1; CCL1
T14 chemokine: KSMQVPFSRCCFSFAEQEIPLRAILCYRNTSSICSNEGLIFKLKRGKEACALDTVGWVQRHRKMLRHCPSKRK

[15] = molecular target: T15, Eotaxin; experiment: as above
T15 construct: also called Eotaxin/CCL11; CCL11

[16] = molecular target: T16, mouse RANTES/CCL5 (mouse, UniProt P30882 24-91); experiment: MSD electrochemiluminescence, chemokine coated at 1 µg/mL
T16 construct: also called muRANTES

[17] = molecular target: T17, mouse MIP-1β/CCL4 (mouse, UniProt P14097 24-92); experiment: as above
T17 construct: also called muMIP-1β
T17 sequence: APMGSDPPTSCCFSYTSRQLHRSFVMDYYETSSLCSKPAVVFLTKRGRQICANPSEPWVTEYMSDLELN

[18] = molecular target: T18, mouse MIP-1α/CCL3 (mouse, UniProt P10855 24-92); experiment: as above
T18 construct: also called muMIP-1α
T18 sequence: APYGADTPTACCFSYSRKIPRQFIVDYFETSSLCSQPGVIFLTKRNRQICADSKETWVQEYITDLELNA

T16 sequence (P30882 24-91 limits assumed): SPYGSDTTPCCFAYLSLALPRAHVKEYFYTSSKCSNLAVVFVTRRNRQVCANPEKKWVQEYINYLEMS
T6 sequence (P13500 24-99 limits assumed): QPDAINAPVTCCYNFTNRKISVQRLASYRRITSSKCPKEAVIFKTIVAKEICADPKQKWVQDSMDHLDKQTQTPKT
T3 sequence (chemokine, as listed by the source): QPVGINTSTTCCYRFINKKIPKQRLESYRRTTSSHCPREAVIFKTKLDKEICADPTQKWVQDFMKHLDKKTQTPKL
T13 sequence (chemokine, as listed by the source): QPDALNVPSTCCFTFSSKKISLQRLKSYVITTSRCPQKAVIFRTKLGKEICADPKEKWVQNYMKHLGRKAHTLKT
T1 sequence (chemokine, as listed by the source): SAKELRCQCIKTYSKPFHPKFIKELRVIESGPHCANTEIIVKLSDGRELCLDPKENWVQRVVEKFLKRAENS
T15 sequence (chemokine, as listed by the source): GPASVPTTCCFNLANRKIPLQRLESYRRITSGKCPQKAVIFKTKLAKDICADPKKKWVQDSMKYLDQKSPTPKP
T5 sequence (chemokine, as listed by the source): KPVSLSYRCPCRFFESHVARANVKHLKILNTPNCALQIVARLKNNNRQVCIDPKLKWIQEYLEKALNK

binding result [1]: no binding (tested: 3 µg/mL)
binding result [2]: binds
binding result [3]: no binding (tested: 3 µg/mL)
binding result [4]: no binding (tested: 3 µg/mL)
binding result [5]: no binding (tested: 3 µg/mL)
binding result [6]: no binding (tested: 3 µg/mL)
binding result [7]: no binding (tested: 3 µg/mL)
binding result [8]: no binding (tested: 3 µg/mL)
binding result [9]: no binding (tested: 3 µg/mL)
binding result [10]: no binding (tested: 3 µg/mL)
binding result [11]: no binding (tested: 3 µg/mL)
binding result [12]: no binding (tested: 3 µg/mL)
binding result [13]: no binding (tested: 3 µg/mL)
binding result [14]: no binding (tested: 3 µg/mL)
binding result [15]: no binding (tested: 3 µg/mL)
binding result [16]: no binding (tested: 3 µg/mL)
binding result [17]: no binding (tested: 3 µg/mL)
binding result [18]: no binding (tested: 3 µg/mL)
B1: monoclonal antibody 7D12A (antibody, V domains shown)
VH: EVHLQESGPSLVKPSQTLSLTCSVTGDSITNGYWNWIRKFPGNKLDYMGYISYDGNTYYNPSLKSRFSITRDTSKNQYYLQLNSVTTEDTATYYCSRGDYGTYVMDYWGQGTSVTVSS
VL: NIVLTQSPVSLAVSLGQRATISCRASESVDSHGNSFMHWYQQKPGQPPKLLIYLASNLESGVPARFTGGGSGSDFTLTIDPVEADDVGTYYCQQNNEDPYTFGGGTKLEIK
notes: also called MAb 7D12A

binding result [16]: no binding (tested: 3 µg/mL)
binding result [17]: no binding (tested: 3 µg/mL)
binding result [18]: no binding (tested: 3 µg/mL)
B2: monoclonal antibody 18V4F (antibody, V domains shown)
VH: QVQLKESGPGLVAPSQSLSITCTVSGFSLTGYGIHWVRQPPGKGLEWLGVIWPGGGTNYNSALMSRLSISKDNSKSQVFLKMNSLQTDDTAMYYCARGPLITTEVSMDYWGQGTSVTVSS
VL: QAVVTQESALTTSPGETVTLTCRSNTGAVTTSNYANWVQEKPDHLFTGLIGGTNNRAPGVPARFSGSLIGDKAALTITGAQTEDEAIYFCALWYSNHWVFGGGTKLTVLG
notes: also called MAb 18V4F
